Values of other authors as cited in patent US11207384B2, “Rapid-acting insulin compositions” (Eli Lilly and Company, priority 2017, dated 2021).

Columns and labels:
[1] = for time until maximum circulating insulin concentration is reached: following the injection
[2] = target: T1, insulin receptor (Homo sapiens, UniProt P06213); conditions: insulin receptor binding in cultured lymphocytes, human placenta and human liver, glucose transport in adipocytes
T1 construct: host or cells: cultured lymphocytes, human placenta, human liver

[3] = on a molar basis

insulin glulisine
time until maximum circulating insulin concentration is reached [1]: 50 to 90 min

insulin lispro
equivalence to insulin in in vitro tests (in words) [2]: biologically equivalent to insulin
kinetics compared to human insulin (in words) ([1]; Tmax, half-life, Cmax): shorter Tmax and half-life and with a higher Cmax
time until maximum circulating insulin concentration is reached [1]: 50 to 90 min
effect after subcutaneous injection compared with soluble human insulin (in words) ([1]; subcutaneous injection): more rapid and of shorter duration than that of injected soluble human insulin
potency relative to human insulin (in words) [3]: equipotent to human insulin on a molar basis

insulin aspart
time until maximum circulating insulin concentration is reached [1]: 50 to 90 min
